T1: VEGFR2/KDR ECD (Homo sapiens, UniProt P35968)
T1 chain: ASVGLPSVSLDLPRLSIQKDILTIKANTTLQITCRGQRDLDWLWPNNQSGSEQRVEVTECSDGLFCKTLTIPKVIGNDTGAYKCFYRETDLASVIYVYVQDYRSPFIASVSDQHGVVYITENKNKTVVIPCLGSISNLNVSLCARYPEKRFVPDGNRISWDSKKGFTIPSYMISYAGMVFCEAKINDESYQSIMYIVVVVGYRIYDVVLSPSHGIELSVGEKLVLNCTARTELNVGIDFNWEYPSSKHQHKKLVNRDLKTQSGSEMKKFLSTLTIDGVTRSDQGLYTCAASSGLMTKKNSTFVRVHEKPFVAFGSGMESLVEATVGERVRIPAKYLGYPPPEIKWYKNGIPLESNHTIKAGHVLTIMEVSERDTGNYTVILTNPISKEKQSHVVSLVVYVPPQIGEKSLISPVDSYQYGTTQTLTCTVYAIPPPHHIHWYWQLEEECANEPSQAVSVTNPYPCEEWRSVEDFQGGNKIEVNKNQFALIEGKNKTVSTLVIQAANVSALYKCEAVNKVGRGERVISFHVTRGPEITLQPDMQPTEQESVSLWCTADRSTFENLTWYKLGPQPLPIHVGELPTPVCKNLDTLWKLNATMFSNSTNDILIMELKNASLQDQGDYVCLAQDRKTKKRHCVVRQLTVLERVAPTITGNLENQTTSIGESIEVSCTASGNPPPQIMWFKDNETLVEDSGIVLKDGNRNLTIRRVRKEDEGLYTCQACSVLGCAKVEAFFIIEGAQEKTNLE

B1: VEGF-A165 (protein)
chain: MTDRQTDTAPSPSYHLLPGRRRTVDAAASRGQGPEPAPGGGVEGVGARGVALKLFVQLLGCSRFGGAVVRAGEAEPSGAARSASSGREEPQPEEGEEEEEKEEERGPQWRLGARKPGSWTGEAAVCADSAPAARAPQALARASGRGGRVARRGAEESGPPHSPSRRGSASRAGPGRASETMNFLLSWVHWSLALLLYLHHAKWSQAAPMAEGGGQNHHEVVKFMDVYQRSYCHPIETLVDIFQEYPDEIEYIFKPSCVPLMRCGGCCNDEGLECVPTEESNITMQIMRIKPHQGQHIGEMSFLQHNKCECRPKKDRARQEKKSVRGKGKGQKRKRKKSRYKSWSVPCGPCSERRKHLFVQDPQTCKCSCKNTDSRCKARQLELNERTCRCDKPRR
B2: HIV-Tat (protein)
chain: MEPVDPRLEPWKHPGSQPKTACTNCYCKKCCFHCQVCFITKALGISYGRKKRRQRRRAPQGSQTHQVSLSKQPTSQSRGDPTGPKE

Biological target: T1, VEGFR2/KDR ECD
Test: SPR

| Binder | Kd |
| --- | --- |
| B1 | 41 pM |
| B2 | 70 pM |

Source: PMC3312455 (2009)
